Molecular target: amyloid precursor protein (APP) (human (endogenous in HEK293), UniProt P05067 18-770)
Assay: cell-based or functional assay

amyloid precursor protein (APP), sequence (P05067 18-770): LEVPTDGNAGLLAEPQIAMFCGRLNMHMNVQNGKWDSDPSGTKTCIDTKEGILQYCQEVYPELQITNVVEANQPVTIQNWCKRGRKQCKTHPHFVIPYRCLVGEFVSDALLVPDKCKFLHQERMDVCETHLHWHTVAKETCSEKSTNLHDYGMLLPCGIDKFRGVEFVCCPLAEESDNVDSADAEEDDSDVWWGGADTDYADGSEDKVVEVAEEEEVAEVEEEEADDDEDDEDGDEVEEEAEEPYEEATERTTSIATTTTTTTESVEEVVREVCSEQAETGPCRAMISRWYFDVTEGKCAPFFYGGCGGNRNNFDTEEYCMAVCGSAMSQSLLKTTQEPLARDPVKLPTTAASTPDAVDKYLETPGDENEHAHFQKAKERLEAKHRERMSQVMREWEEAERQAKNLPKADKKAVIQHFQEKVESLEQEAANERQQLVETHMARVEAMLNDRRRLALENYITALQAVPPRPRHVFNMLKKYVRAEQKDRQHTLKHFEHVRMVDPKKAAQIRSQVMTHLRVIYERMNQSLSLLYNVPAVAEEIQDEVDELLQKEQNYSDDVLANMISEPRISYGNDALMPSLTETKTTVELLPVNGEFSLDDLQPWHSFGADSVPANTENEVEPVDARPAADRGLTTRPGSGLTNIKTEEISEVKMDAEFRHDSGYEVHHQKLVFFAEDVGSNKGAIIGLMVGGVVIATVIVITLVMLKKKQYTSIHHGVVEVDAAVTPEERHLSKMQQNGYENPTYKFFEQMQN

GAL4-dependent firefly luciferase reporter in HEK293 with pMST-APP (full-length APP fused to the GAL4 DNA binding domain): increase of APP transcriptional activity: ~14 fold
B1: FLAG-Fe65 (natural protein, human, UniProt O00213-2 1-708, looked up)
chain: MSVPSSLSQSAINANSHGGPALSLPLPLHAAHNQLLNAKLQATAVGPKDLRSAMGEGGGPEPGPANAKWLKEGQNQLRRAATAHRDQNRNVTLTLAEEASQEPEMAPLGPKGLIHLYSELELSAHNAANRGLRGPGLIISTQEQGPDEGEEKAAGEAEEEEEDDDDEEEEEDLSSPPGLPEPLESVEAPPRPQALTDGPREHSKSASLLFGMRNSAASDEDSSWATLSQGSPSYGSPEDTDSFWNPNAFETDSDLPAGWMRVQDTSGTYYWHIPTGTTQWEPPGRASPSQGSSPQEESQLTWTGFAHGEGFEDGEFWKDEPSDEAPMELGLKEPEEGTLTFPAQSLSPEPLPQEEEKLPPRNTNPGIKCFAVRSLGWVEMTEEELAPGRSSVAVNNCIRQLSYHKNNLHDPMSGGWGEGKDLLLQLEDETLKLVEPQSQALLHAQPIISIRVWGVGRDSGRDFAYVARDKLTQMLKCHVFRCEAPAKNIATSLHEICSKIMAERRNARCLVNGLSLDHSKLVDVPFQVEFPAPKNELVQKFQVYYLGNVPVAKPVGVDVINGALESVLSSSSREQWTPSHVSVAPATLTILHQQTEAVLGECRVRFLSFLAVGRDVHTFAFIMAAGPASFCCHMFWCEPNAASLSEAVQAACMLRYQKCLDARSQASTSCLPAPPAESVARRVGWTVRRGVQSLWGSLKPKRLGAHTP

Reference: PMC4866770 (PLoS ONE, 2016)
